Measurements taken from PMC8091058, “Distinct intramolecular interactions regulate autoinhibition of vinculin binding in αT-catenin and αE-catenin” (The Journal of Biological Chemistry, 2021).
Substitutions are numbered along the chain they refer to. In names and notes the source's numbering stands.

T1: β-catenin–N-cadherin cytoplasmic tail complex (Mus musculus | , UniProt Q02248 1-781; P15116 746-906)
T1 construct: β-catenin, Mus musculus, full length; N-cadherin cytoplasmic tail (Ncad_(cyto)); the methods name no plasmid for the N-cadherin tail; also called β-catenin–Ncad_(cyto); β-cat–Ncad_(cyto); source: β-catenin: E. coli BL21-Gold, purified
T1 sequence (looked up) 1: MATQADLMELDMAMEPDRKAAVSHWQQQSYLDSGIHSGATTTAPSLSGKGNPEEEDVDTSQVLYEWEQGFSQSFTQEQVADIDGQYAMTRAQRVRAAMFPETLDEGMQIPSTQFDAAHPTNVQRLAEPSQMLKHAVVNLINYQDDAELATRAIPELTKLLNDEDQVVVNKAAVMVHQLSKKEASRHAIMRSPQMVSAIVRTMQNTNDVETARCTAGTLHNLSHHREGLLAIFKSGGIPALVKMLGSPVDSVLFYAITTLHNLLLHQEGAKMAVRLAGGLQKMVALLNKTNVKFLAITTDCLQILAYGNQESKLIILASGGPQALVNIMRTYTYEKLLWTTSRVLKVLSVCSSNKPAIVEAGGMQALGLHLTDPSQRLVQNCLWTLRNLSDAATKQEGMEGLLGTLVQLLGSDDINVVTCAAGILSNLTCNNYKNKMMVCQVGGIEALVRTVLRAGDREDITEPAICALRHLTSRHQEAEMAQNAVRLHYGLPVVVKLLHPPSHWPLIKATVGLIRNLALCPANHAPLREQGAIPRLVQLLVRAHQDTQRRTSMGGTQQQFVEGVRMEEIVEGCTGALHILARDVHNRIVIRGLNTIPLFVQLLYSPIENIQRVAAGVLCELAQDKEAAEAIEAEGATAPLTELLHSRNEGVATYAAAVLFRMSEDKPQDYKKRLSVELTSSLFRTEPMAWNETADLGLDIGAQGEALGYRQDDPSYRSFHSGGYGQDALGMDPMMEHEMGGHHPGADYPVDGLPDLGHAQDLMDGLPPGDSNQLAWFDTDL
T1 sequence (looked up) 2: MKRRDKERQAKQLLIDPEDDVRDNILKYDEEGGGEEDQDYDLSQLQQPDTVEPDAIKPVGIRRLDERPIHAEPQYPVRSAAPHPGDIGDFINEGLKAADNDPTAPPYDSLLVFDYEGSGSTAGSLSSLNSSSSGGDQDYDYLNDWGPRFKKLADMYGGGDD

T2: vinculin D1 (Mus musculus, UniProt Q64727)
T2 chain: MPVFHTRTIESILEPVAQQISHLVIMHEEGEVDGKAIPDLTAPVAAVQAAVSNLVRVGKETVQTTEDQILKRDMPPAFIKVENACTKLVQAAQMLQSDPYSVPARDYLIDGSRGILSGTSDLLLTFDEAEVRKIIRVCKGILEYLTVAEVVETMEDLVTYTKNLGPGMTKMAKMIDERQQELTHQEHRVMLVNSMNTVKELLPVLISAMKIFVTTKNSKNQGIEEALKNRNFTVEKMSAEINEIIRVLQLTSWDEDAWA

B1: β-catenin (natural protein, Mus musculus, UniProt Q02248 1-781, looked up)
chain: T1 sequence (looked up) 1
notes: β-catenin, Mus musculus, full length; in pGEX-TEV; source: E. coli BL21-Gold, purified (glutathione-agarose, TEV cleavage, Mono Q or Mono S, S200)
B2: αT-catenin head region (aa 1–659) (domain or fragment, Mus musculus, UniProt Q65CL1 1-659, looked up)
chain: MSAETPITLNMDTQDLQIQTFTVEKLLEPLIIQVTTLVNCPQNPSNRKKGRSKRARVLLASVEEATWNLLDKGEMIAKEATVLKEELAAALQEVRKESKALKVSAERFTDDPCYLPKREAVVQAARALLAAVTRLLVLADMIDVMCLLQHVSSFQRTFESLKNVSNKSDLQRTYQKLGKELESLDYLAFKRQQDLKSPSQRDEIAGARATLKENSPLLHSICSACLEHSDVASLKASKDTVCEEIQNALDVISNASQGIQNAPAPPEPQAATLGSAFDELENLIVLNPLTVTEEDVRPSLEKRLEAIISGAALLADSSCTRDLHRERIIAECNAIRQALQDLLTEYMSNTGKTERSNTLNTAIVNMSKKTRDLRRQLRKAIIDHISDSFLDTTVPLLVLIEAAKNGRVKEIKDYAAIFHEHTGRLVEVANLACSMSTNEDGIKIVRIAANHLETLCPQIINAALALASRPKSQVVKNTMEMYKRTWEHYIHVLTEAVDDITSIDDFLAVSESHILEDVNKCIIALRDQDADNLDRAAGAIRGRAARVAHIVAGEMDSYEPGAYTEGVMRNVNFLTSTVIPEFVTQVNVALDALSKNSLTALDDNQFVDISKKIYDTIHDIRCSVMMIRTPEELEDVSDLEDDHEVRSHTSIQTEGKTDR
notes: αT-catenin, Mus musculus, head region (N- and M-domains), aa 1-659; in pGEX-TEV; also called αT-catenin head (1–659); αT-catenin N1-M3 (aa 1–659); source: E. coli BL21-Gold, purified (glutathione-agarose, TEV cleavage, Mono Q or Mono S, S200)
B3: αT-catenin V94D N1-N2 (domain or fragment, Mus musculus, UniProt Q65CL1 1-259, looked up)
chain: MSAETPITLNMDTQDLQIQTFTVEKLLEPLIIQVTTLVNCPQNPSNRKKGRSKRARVLLASVEEATWNLLDKGEMIAKEATVLKEELAAALQEDRKESKALKVSAERFTDDPCYLPKREAVVQAARALLAAVTRLLVLADMIDVMCLLQHVSSFQRTFESLKNVSNKSDLQRTYQKLGKELESLDYLAFKRQQDLKSPSQRDEIAGARATLKENSPLLHSICSACLEHSDVASLKASKDTVCEEIQNALDVISNASQGI
notes: αT-catenin N1-N2 (aa 1-259) with V94D, a point mutation linked to arrhythmogenic ventricular cardiomyopathy in humans; also called V94D mutant; source: E. coli BL21-Gold, purified (glutathione-agarose, TEV cleavage, Mono Q or Mono S, S200)
B4: αT-catenin N1-N2 (aa 1–259) (domain or fragment, Mus musculus, UniProt Q65CL1 1-259, looked up)
chain: B3 chain with D94V
notes: αT-catenin, Mus musculus, N1-N2, aa 1-259; in pGEX-TEV; also called αT-catenin WT N1-N2; αT-catenin N1-N2 (1–259); source: E. coli BL21-Gold, purified (glutathione-agarose, TEV cleavage, Mono Q or Mono S, S200)
B5: 2I27–αT-catenin M1-M3–2I27 259-667 (protein)
chain: IQNAPAPPEPQAATLGSAFDELENLIVLNPLTVTEEDVRPSLEKRLEAIISGAALLADSSCTRDLHRERIIAECNAIRQALQDLLTEYMSNTGKTERSNTLNTAIVNMSKKTRDLRRQLRKAIIDHISDSFLDTTVPLLVLIEAAKNGRVKEIKDYAAIFHEHTGRLVEVANLACSMSTNEDGIKIVRIAANHLETLCPQIINAALALASRPKSQVVKNTMEMYKRTWEHYIHVLTEAVDDITSIDDFLAVSESHILEDVNKCIIALRDQDADNLDRAAGAIRGRAARVAHIVAGEMDSYEPGAYTEGVMRNVNFLTSTVIPEFVTQVNVALDALSKNSLTALDDNQFVDISKKIYDTIHDIRCSVMMIRTPEELEDVSDLEDDHEVRSHTSIQTEGKTDRAKMTQLPE
modifications: 2I27 fusion at both ends

Columns and labels:
[1] = target: B2; assay: ITC; β-catenin (110-150 μM) or β-catenin–Ncad_(cyto) complex (103-158 μM) injected into αT-catenin fragment in the cell; 25 °C; 20 mM Hepes pH 8.0, 150 mM NaCl, 1 mM TCEP; conditions: both partners purified
β-catenin = target: B1; assay: as above; conditions: both partners purified
[2] = target: T1, β-catenin–N-cadherin cytoplasmic tail …; assay: as above; conditions: both partners purified
[3] = target: the molecule itself; assay: SEC; analytical SEC of 30 μM protein
vinculin D1 = target: T2, vinculin D1; assay: ITC

Binder: B1
dH [1]: -14.6 ± 2.1 kcal/mol

Binder: B2
Kd (β-catenin): 264 ± 109 nM
Kd [2]: 5.6 ± 0.6 nM

Binder: B3
stoichiometry N [3]: 2

Binder: B4
Kd [2]: 6.9 ± 12 nM

Binder: B5
Kd (vinculin D1): ~250 nM
